Reference: article PMC4860965, “A novel role for the tumour suppressor Nitrilase1 modulating the Wnt/β-catenin signalling pathway” (Cell Discovery, 2016)

Target: T1, GST-β-catenin (GST-β-cat (aa1–781)) (UniProt P35222 1-781)
T1 construct: β-catenin aa1–781; the cDNA may be mouse (surmise); source: E. coli XL1 blue or BL21-RE4, purified (glutathione-agarose)
T1 sequence (looked up): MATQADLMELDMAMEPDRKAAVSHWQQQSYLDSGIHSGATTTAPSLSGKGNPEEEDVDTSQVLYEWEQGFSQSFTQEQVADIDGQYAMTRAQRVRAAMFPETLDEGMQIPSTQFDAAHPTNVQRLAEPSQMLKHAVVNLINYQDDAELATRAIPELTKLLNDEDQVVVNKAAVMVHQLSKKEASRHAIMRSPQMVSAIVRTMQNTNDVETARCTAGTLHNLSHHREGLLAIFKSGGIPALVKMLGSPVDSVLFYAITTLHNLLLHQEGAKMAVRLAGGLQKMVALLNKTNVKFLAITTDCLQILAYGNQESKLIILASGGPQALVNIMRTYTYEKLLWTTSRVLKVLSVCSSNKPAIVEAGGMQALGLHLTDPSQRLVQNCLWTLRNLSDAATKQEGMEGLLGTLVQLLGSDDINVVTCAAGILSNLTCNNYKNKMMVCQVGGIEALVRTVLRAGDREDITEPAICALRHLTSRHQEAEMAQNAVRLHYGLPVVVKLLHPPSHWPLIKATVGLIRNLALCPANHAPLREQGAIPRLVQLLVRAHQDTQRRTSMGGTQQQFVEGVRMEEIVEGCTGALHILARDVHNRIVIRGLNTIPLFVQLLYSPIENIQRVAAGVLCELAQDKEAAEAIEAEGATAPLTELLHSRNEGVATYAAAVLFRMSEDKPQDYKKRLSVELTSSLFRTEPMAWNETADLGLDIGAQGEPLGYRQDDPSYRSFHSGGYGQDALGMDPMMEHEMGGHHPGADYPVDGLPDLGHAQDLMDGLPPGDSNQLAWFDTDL
Assay: pull-down; 4 μg GST or GST fusion protein with 5 μg MBP fusion protein, 150 mM NaCl, 20 mM imidazole or HEPES pH 8.0, 2 mM MgCl2, 300 mM sucrose, 0.25% Triton X-100, 20 min at 4 °C; glutathione-agarose beads; western blot with anti-MBP
Conditions: both partners purified

binding result: binds
B1: MBP-dNitFhit (natural protein, D. melanogaster, UniProt O76464 1-460, looked up)
chain: MSTLVNTTRRSIVIAIHQQLRRMSVQKRKDQSATIAVGQMRSTSDKAANLSQVIELVDRAKSQNACMLFLPECCDFVGESRTQTIELSEGLDGELMAQYRELAKCNKIWISLGGVHERNDQKIFNAHVLLNEKGELAAVYRKLHMFDVTTKEVRLRESDTVTPGYCLERPVSTPVGQIGLQICYDLRFAEPAVLLRKLGANLLTYPSAFTYATGKAHWEILLRARAIETQCFVVAAAQIGWHNQKRQSWGHSMIVSPWGNVLADCSEQELDIGTAEVDLSVLQSLYQTMPCFEHRRNDIYALTAYNLRSKEPTQDRPFATNIVDKRTIFYESEHCFAFTNLRCVVKGHVLVSTKRVTPRLCGLDCAEMADMFTTVCLVQRLLEKIYQTTSATVTVQDGAQAGQTVPHVHFHIMPRRLGDFGHNDQIYVKLDERAEEKPPRTIEERIEEAQIYRKFLTDIS
notes: Drosophila melanogaster NitFhit, amplified from the intronless genomic DNA; source: E. coli XL1 blue or BL21-RE4, purified (amylose resin)
